# According to patent US7838294B2, “Inhibitors of the JNK signal transduction pathway and methods of use” (University of Massachusetts, priority 1997, dated 2010):
# B1: JIP-1: 660 amino acid murine cytoplasmic protein that specifically binds JNK (protein)
# chain: MAERESGLGGGAASPPAASPFLGLHIASPPNFRLTHDISLEEFEDEDLSEITDECGISLQCKDTLSLRPPRAGLLSAGSSGSAGSRLQAEMLQMDLIDAAGDTPGAEDDEEEEDDELAAQRPGVGPPKAESNQDPAPRSQGQGPGTGSGDTYRPKRPTTLNLFPQVPRSQDTLNNNSLGKKHSWQDRVSRSSSPLKTGEQTPPHEHICLSDELPPQGSPVPTQDRGTSTDSPCRRSAATQMAPPSGPPATAPGGRGHSHRDRIHYQADVRLEATEEIYLTPVQRPPDPAEPTSTFMPPTESRMSVSSDPDPAAYSVTAGRPHPSISEEDEGFDCLSSPERAEPPGGGWRGSLGEPPPPPRASLSSDTSALSYDSVKYTLVVDEHAQLELVSLRPCFGDYSDESDSATVYDNCASASSPYESAIGEEYEEAPQPRPPTCLSEDSTPDEPDVHFSKKFLNVFMSGRSRSSSAESFGLFSCVINGEEHEQTHRAIFRFVPRHEDELELEVDDPLLVELQAEDYWYEAYNMRTGARGVFPAYYAIEVTKEPEHMAALAKNSCVLEISVRGVKIGVKADDALEAKGNKCSHFFQLKNISFCGYHPKNNKYFGFITKHPADHRFACHVFVSEDSTKALAESVGRAFQQFYKQFVEYTCPTEDIYLE
# Legend:
# [1] = test system: Elk-1 transcriptional activity; test: GAL4 luciferase reporter assay in CHO cells: GAL4-Elk-1; format: cell-based, Chinese hamster; conditions: FIG. 4B
# Method: In these experiments, CHO cells were cotransfected with constructs encoding the transcription factors and JIP-1 using previously described methods. Dérijard et al., supra; Sluss et al., supra; Gupta et al., supra. A luciferase reporter plasmid was used to monitor the expression of the transcription factors. Transfection efficiency was determined using a β-galactosidase expression vector. Constructs used in these experiments included GAL4 fusions with the c-myc, Sp1 and VP16 activation domains (described in Whitmarsh et al., Science, 269:403 (1995); Davis, Science, 269:403 (1995); Gille et al., Curr. Biol., 5:1191 (1995)). […]
# (§1) Transfected cells were activated by treatment with 10% (v/v) fetal calf serum, and luciferase and β-galactosidase activities were measured in cell lysates at 48 hours post-transfection. The data are presented as the ratio of luciferase activity (light units) to β-galactosidase activity (OD units) measured in the cell extracts (mean±SEM (n=3)), and are normalized to the luciferase activity detected in the absence of JBD (FIGS. 4A and 4B) or ATF2 (FIG. 4C).
# [2] = test system: ATF2 transcriptional activity; test: GAL4 luciferase reporter assay in CHO cells: GAL4-ATF2; format: cell-based, Chinese hamster
# Method: In these experiments, CHO cells were cotransfected with constructs encoding the transcription factors and JIP-1 using previously described methods. Dérijard et al., supra; Sluss et al., supra; Gupta et al., supra. A luciferase reporter plasmid was used to monitor the expression of the transcription factors. Transfection efficiency was determined using a β-galactosidase expression vector. Constructs used in these experiments included GAL4 fusions with the c-myc, Sp1 and VP16 activation domains (described in Whitmarsh et al., Science, 269:403 (1995); Davis, Science, 269:403 (1995); Gille et al., Curr. Biol., 5:1191 (1995)). Other constructs used were GAL4-c-Jun, in which GAL4 is fused to c-Jun; GAL4-c-Jun (S63A/S73A), in which GAL4 is fused to a mutant c-Jun in which the serines at positions 63 and 73 have been changed to alanines; GAL4-ATF2, in which GAL4 is fused to wild type ATF2 (ATF2(Thr-69, 71)); GAL4-ATF2 (T69A/T71A) (ATF2(Ala-69/71)), in which GAL4 has been fused to a mutant ATF2 in which the […] at positions 69 and 71 have been changed to alanines; GAL4-Elk-1, in which GAL4 has been fused to Elk-1; and GAL4-Elk-1 (S383A), in which GAL4 has been fused to a mutant Elk-1 in which the serine at position 383 has been changed to an alanine. Gupta et al., EMBO J, 15:2760-2770 (1996); Raingeaud et al., Mol. Cell. Biol., 16:1247-1255 (1996); Whitmarsh et al. Science, 269:403-407 (1995).
# Insertional overlapping PCR, described in detail in Ho, supra, was used to construct expression vectors for the JNK binding domain (JBD; amino acid residues 127-281) of JIP-1 and for a mutant JIP-1 lacking the SH3 (amino acid residues 491-540) domain.
# as §1
# ERK2 = test: Immune complex protein kinase assay: ERK, substrate MBP; format: biochemical, Chinese hamster; conditions: in vitro, 3 μg myelin basic protein
# Method: (§2) To test whether JIP-1 competes with Jun and ATF2 for interaction with JNK, the effect of JIP-1 on transcription factor-mediated phosphorylation of exogenous substrates was analyzed using an in vitro protein kinase assay. In these experiments, Chinese hamster ovary (CHO) cells were serum-starved for one hour. In some experiments, the cells were treated with 10 ng/ml mouse interleukin 1 or 100 nM phorbol myristic acetate. JNK, p38, and ERK protein kinase activity was measured in an immune complex kinase assay using 3 μg of the substrates GST-Jun, GST-ATF2, and myelin basic protein (MBP), respectively. Protein kinase assays were performed using 40 μl 20 mM Hepes (pH 7.4), 20 mM MgCl2, 20 mM β-glycerophosphate, 2 mM dithiothreitol, 0.1 mM sodium orthovanadate, 50 μM [γ-^32P]ATP (10 Ci/mmol). After incubation for 30 minutes at 30° C., phosphorylation of substrates was analyzed by polyacrylamide gel electrophoresis and autoradiography.
# p38 MAP kinase [3] = molecular target: T1, p38 MAP kinase (Homo sapiens, UniProt Q16539); test: Immunofluorescence: subcellular distribution of p38 MAP kinase on JIP-1 expression; format: cell-based
# T1 construct: expressed in transfected cells
# p38 MAP kinase [4] = molecular target: T1, p38 MAP kinase; test: GST-fusion pull-down from cell lysates, Flag immunoblot: p38 MAP kinase; format: binding; conditions: control experiment, Flag-p38 lysate
# Method: To test whether JIP-1 binding to JNK is also isoform-dependent, a binding assay was utilized. Cell lysates (1 ml in TLB) containing JNK1, JNK2, or p38 MAP kinase, each tagged with the Flag epitope, were incubated with 5 μg GST-fusion proteins pre-bound to 10 μl glutathione-Sepharose. The GST fusion proteins used contain residues 127-202 (SEQ ID NO:15), 203-281 (SEQ ID NO:16), 164-240 (SEQ ID NO:17), or 127-281 (SEQ ID NO:4) of JIP-1. The GST-ATF2 fusion protein contains residues 1-109 of ATF2, and the GST-Jun fusion protein contains residues 1-79 of c-Jun. After incubation for one hour at 4° C. and three washes with TLB, bound proteins were detected by protein immunoblot analysis with the M2 monoclonal antibody, which is specific for the Flag epitope. Dérijard, et al., supra; Sluss et al., supra; Gupta et al., supra. […] This finding is consistent with the results of previous studies. In contrast, when GST-JIP-1 fusion proteins containing residues 127-202 or 127-281 of JIP-1 were tested in the assay, these proteins bound both JNK1 and JNK2.
# p38 = test: Immune complex protein kinase assay: p38, substrate GST-ATF2; format: biochemical, Chinese hamster; conditions: in vitro, 3 μg GST-ATF2
# Method: as §2
# JNK = test: Immune complex protein kinase assay: JNK, substrate GST-Jun; format: biochemical, Chinese hamster; conditions: in vitro, 3 μg GST-Jun, 30 minutes at 30° C.
# Method: as §2
# T1 sequence (Q16539 whole entry): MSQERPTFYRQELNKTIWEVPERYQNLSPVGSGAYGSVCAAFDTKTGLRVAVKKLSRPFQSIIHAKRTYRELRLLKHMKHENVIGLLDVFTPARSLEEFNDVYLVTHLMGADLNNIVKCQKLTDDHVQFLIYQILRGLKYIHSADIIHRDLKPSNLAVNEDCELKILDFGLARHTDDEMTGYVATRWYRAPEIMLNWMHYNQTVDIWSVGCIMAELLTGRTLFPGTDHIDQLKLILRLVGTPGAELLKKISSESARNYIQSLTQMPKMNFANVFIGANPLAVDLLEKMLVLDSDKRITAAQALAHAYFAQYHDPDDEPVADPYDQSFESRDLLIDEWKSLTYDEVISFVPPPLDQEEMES
molecule,measurement,setting,value
B1,basal transcriptional activity of Elk-1 mutated at JNK phosphorylation sites,[1]; GAL4-Elk-1 (S383A),not markedly inhibited
same,Elk-1 transcriptional activity,"[1]; wild type GAL4-Elk-1, CHO cells",partial inhibition
same,basal transcriptional activity of ATF2 mutated at JNK phosphorylation sites,"[2]; GAL4-ATF2 (T69A/T71A), FIG. 4B",not markedly inhibited
same,JNK-regulated gene expression,"[2]; GAL4-ATF2 reporter, CHO cells, FIG. 4C",inhibition
same,ATF2 transcriptional activity,"[2]; wild type GAL4-ATF2, CHO cells, FIG. 4B",Significant inhibition
same,phosphorylation of substrate by ERK2,ERK2,no significant change
same,subcellular distribution of p38 MAP kinase,p38 MAP kinase [3],no significant effect
same,binding to p38 MAP kinase,p38 MAP kinase [4],did not bind
same,phosphorylation of substrate by p38,p38,no significant change
same,phosphorylation of c-Jun by JNK,JNK,markedly inhibited
